Data: patent publication US20210347873A1 (SHANGHAI PHARMAEXPLORER, published 2021)

How the values were obtained:
[1] = target: human BLyS (full length, arginine to histidine at position 132) on CHO-K1 cells (human) (UniProt Q9Y275); assay: flow cytometry, CHO-K1 hBLyS cells, antibody 0 nM
[2] = target: human BLyS (full length, arginine to histidine at position 132) on CHO-K1 cells (human) (UniProt Q9Y275); assay: flow cytometry, CHO-K1 hBLyS cells, antibody 0.107 nM
[3] = target: biotinylated hBLyS-ECD (human) (UniProt Q9Y275); assay: ELISA, biotinylated hBLyS-ECD captured on streptavidin; antibody 2.67 nM
[4] = target: biotinylated hBLyS-ECD (human) (UniProt Q9Y275); assay: blocking ELISA: biotinylated hBLyS-ECD on coated BAFF R, antibody 0.8 nM
[5] = target: biotinylated hBLyS-ECD (human) (UniProt Q9Y275); assay: blocking ELISA: biotinylated hBLyS-ECD on coated BAFF R, antibody 0.032 nM
[6] = target: biotinylated hBLyS-ECD (human) (UniProt Q9Y275); assay: blocking ELISA: biotinylated hBLyS-ECD on coated BAFF R, antibody 0.00128 nM
biotinylated hBLyS-ECD [7] = target: T1, biotinylated hBLyS-ECD (human, UniProt Q9Y275 134-285, biotinylated with Biotin-X-X-NHS (molar ratio 7:1), sites not stated); assay: ELISA: biotinylated hBLyS-ECD captured on streptavidin, antibody titrated, HRP secondary antibody
T1 construct: The hBLyS-ECD of Embodiment 1 after biotinylation (Embodiment 2); also called biotinylated immunogen; BLyS protein; not shown: His tag of the pCPC vector
Protocol: Streptavidin was first diluted to a final concentration of 1.0 μg/mL with PBS, and then 50 μL of diluted streptavidin per well was aliquoted into 96-well ELISA plate, which was subsequently sealed with plastic film and incubated at 4° C. overnight. On the next day the plate was washed four times with the plate washing buffer [PBS buffer containing 0.05% (v/v) Tween20] and added with the blocking solution [PBS buffer containing 0.05% (v/v) Tween20 and 1% (w/w) BSA] and blocked for 2 hours at 37° C. The blocking solution was removed, the biotinylated hBLyS-ECD prepared in Embodiment 2 was diluted with PBS to a final concentration of 50 ng/mL and then aliquoted into the 96-well ELISA plate at 50 μL per well and incubated for 1 hour at 37° C. After rinsing the plate four times with the plate washing buffer [PBS buffer containing 0.05% (v/v) Tween20], 100 μl of the purified lead antibody harvested in Embodiment 1 and 2 was pipetted into each well. After incubation for 1 hour at 37° C., the plate was rinsed four times with the plate washing buffer [PBS buffer containing 0.05% (v/v) Tween20]. HRP-labeled (horseradish peroxidase) secondary antibody (purchased from Sigma) was added in and incubated at 37° C. for 1 hour. […] A₄₅₀ₙₘ values were read via an ELISA plate reader (SpectraMax M5e purchased from Molecular Devices) and the results were shown in FIGS. 5A-5B and Table 10.

biotinylated hBLyS-ECD [8] = target: T2, biotinylated hBLyS-ECD (human, UniProt Q9Y275 134-285, biotinylated with Biotin-X-X-NHS (molar ratio 7:1); sites not stated); assay: ELISA on captured biotinylated hBLyS-ECD; antibody 2.67 nM
T2 construct: also called biotinylated immunogen; biotinylated hBLvS-ECD

biotinylated hBLyS-ECD [9] = target: T2, biotinylated hBLyS-ECD; assay: ELISA on captured biotinylated hBLyS-ECD; antibody 13.3 nM
biotinylated hBLyS-ECD [10] = target: T2, biotinylated hBLyS-ECD; assay: ELISA on captured biotinylated hBLyS-ECD; antibody 66.7 nM
biotinylated hBLyS-ECD [11] = target: T2, biotinylated hBLyS-ECD; assay: ELISA on captured biotinylated hBLyS-ECD; antibody 0.107 nM
biotinylated hBLyS-ECD [12] = target: T2, biotinylated hBLyS-ECD; assay: ELISA on captured biotinylated hBLyS-ECD; antibody 0.00427 nM
biotinylated hBLyS-ECD [13] = target: T2, biotinylated hBLyS-ECD; assay: ELISA on captured biotinylated hBLyS-ECD; antibody 0 nM (background)
[14] = target: T3, extracellular domain of human BLyS protein (hBLyS-ECD), His-tagged, Ala134-Leu285 (human, UniProt Q9Y275 134-285); assay: SPR (Biacore), antibody captured by anti-human Fc, hBLyS-ECD as analyte
T3 construct: Expressed in HEK293 cells and purified on a Ni column; also called immunogen

biotinylated hBLyS-ECD [15] = target: T2, biotinylated hBLyS-ECD; assay: BAFF R-coated ELISA, biotinylated hBLyS-ECD bound in presence of antibody 20 nM
biotinylated hBLyS-ECD [16] = target: T2, biotinylated hBLyS-ECD; assay: BAFF R-coated ELISA, biotinylated hBLyS-ECD bound in presence of antibody 0.032 nM

human BLyS (full length, arginine to histidine at position 132) on CHO-K1 cells (human), sequence (Q9Y275 whole entry R130H, the tested form may be a part): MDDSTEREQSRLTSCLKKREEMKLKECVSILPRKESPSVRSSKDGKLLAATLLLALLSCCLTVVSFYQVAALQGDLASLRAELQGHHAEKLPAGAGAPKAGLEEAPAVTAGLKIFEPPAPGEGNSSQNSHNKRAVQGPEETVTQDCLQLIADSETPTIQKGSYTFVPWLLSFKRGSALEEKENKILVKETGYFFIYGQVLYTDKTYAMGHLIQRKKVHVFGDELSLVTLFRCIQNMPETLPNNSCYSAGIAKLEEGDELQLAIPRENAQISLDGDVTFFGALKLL

MFI [1] [MFI]	MFI [2] [MFI]	OD450 nm [3]	OD450 nm [4] [OD450 nm]	OD450 nm [5] [OD450 nm]	OD450 nm [6] [OD450 nm]	EC50 (read off the curve) (biotinylated hBLyS-ECD [7]) [nM]	OD450 nm (biotinylated hBLyS-ECD [8]) [OD450 nm]	OD450 nm (biotinylated hBLyS-ECD [9]) [OD450 nm]	OD450 nm (biotinylated hBLyS-ECD [10]) [OD450 nm]	OD450 nm (biotinylated hBLyS-ECD [11]) [OD450 nm]	OD450 nm (biotinylated hBLyS-ECD [12]) [OD450 nm]	OD450 nm (biotinylated hBLyS-ECD [13]) [OD450 nm]	Kd [14] [nM]	koff [14] [s⁻¹]	kon [14] [M⁻¹ s⁻¹]	OD450 nm (biotinylated hBLyS-ECD [15]) [OD450 nm]	OD450 nm (biotinylated hBLyS-ECD [16]) [OD450 nm]	Molecule
30.3	31.6	0.0659	1.4	1.45	1.42	–	–	–	–	–	–	–	–	–	–	–	–	mIgG Control (antibody)
27.2	32.9	0.0956	1.14	1.11	1.13	–	–	–	–	–	–	–	–	–	–	–	–	hIgG Control (antibody)
–	–	–	–	–	–	~0.2	–	–	–	–	–	–	–	–	–	–	–	L9G7 (antibody, human IgG1, V domains shown) VH: QIQLVQSGAEVKKPGASVKVSCKASGYTFTSYGISWVRQAPGQGLEWMGWISAYNGNTNYAQKLQGRVTMTTDTSTSTAYMELRSLRSDDTAVYYCARTYYDILTGYYYYGMDVWGQGTTVTVSS VL: EIVLTQSPGTLSLSPGERATLSCRTSQSVDTYLAWYQQKPGQAPRLLIYDASNRATGIPARFSGSGSGTDFTLTISSLEPEDFAVYYCQQRSNWPLTFGGGTKVEIK
–	–	–	–	–	–	–	3.32	2.34	2.41	2.35	0.194	0.165	0.446	7.34e-05	165000	0.717	1.84	c97A3C2H4 (antibody, V domains shown, also called chimeric antibody c97A3C2H4) VH: EVKLVESGGGLVQPGGSLKLSCAASGFTFSTYTMSWVRQTPEKRLEWVAYISYGGGSTSYPDTVKGRFTISRDNAKNTLYLQMSSLKSEDTAIYYCTRHVTVVENSMDYWGQGTSVTVSS VL: DILLTQSPDILSVSPGERVSFSCRASQSIGTSIHWYQQRTNGSPRLLIKYVSESFSGTPSRFSGSGSGTAFTLTINSVESEDIADYYCQQTHSWPWTFGGGTKLEIK
–	–	–	–	–	–	~0.1	–	–	–	–	–	–	–	–	–	–	–	L1D12 (antibody, human IgG1, V domains shown, also called LID12) VH: QVQLVQSGGGLVQPGGSLRLSCAASGFTVSSNYMSWVRQAPGKGLEWVSVIYSGGSTYYADSVKGRFTISRDNSKNTLYLQMNSLRAEDTAVYYCARGFHDILTGYGMDVWGQGTTVTVSS VL: SSELTQDPAVSVALGQTVRITCQGDSLRNYYAGWYQQKPGQAPVLVIYGKNNRPSGIPDRFSGSSSGNTASLTITGTQAEDEADYYCSSRDNSGTHLVEFGGGTKLTVL
–	–	–	–	–	–	–	3.24	2.37	2.32	1.7	0.198	0.322	2.38	0.00109	456000	0.66	1.97	c8E7D9C7F5 (antibody, V domains shown, also called chimeric antibody c8E7D9C7F5) VH: QVQLQQSGVELARPGASVKLSCKASGYTFTSYGISWVKQRTGQALEWIGEIYPRSGNTYYNEKFKGKATLTADKSSSTAYMELRSLTSEDSAVYFCARSGPITTLVATDYGMDYWGQGTSVTVSS VL: DIVLTQSPASLAVSLGQRATISCRASKSVSTSSYSYMHWYQQKPGQPPKLLIKFASNLESGVPARFSGSGSGTDFTLNIHPVEEEDAATYYCQHSREFPYTFGGGTKLEIK
